In PMC2747101:

Molecular target: hCD40ADD (human CD40 with its TRAF binding site PVQETLH changed to PVQATDD) (human) (UniProt P25942)
Test: co-IP

B1: TNF receptor-associated factor 2 (natural protein)
chain: MAAASVTSPGSLELLQPGFSKTLLGTRLEAKYLCSACKNILRRPFQAQCGHRYCSFCLTSILSSGPQNCAACVYEGLYEEGISILESSSAFPDNAARREVESLPAVCPNDGCTWKGTLKEYESCHEGLCPFLLTECPACKGLVRLSEKEHHTEQECPKRSLSCQHCRAPCSHVDLEVHYEVCPKFPLTCDGCGKKKIPRETFQDHVRACSKCRVLCRFHTVGCSEMVETENLQDHELQRLREHLALLLSSFLEAQASPGTLNQVGPELLQRCQILEQKIATFENIVCVLNREVERVAVTAEACSRQHRLDQDKIEALSNKVQQLERSIGLKDLAMADLEQKVSELEVSTYDGVFIWKISDFTRKRQEAVAGRTPAIFSPAFYTSRYGYKMCLRVYLNGDGTGRGTHLSLFFVVMKGPNDALLQWPFNQKVTLMLLDHNNREHVIDAFRPDVTSSSFQRPVSDMNIASGCPLFCPVSKMEAKNSYVRDDAIFIKAIVDLTGL
- fold reduction of co-immunoprecipitated TRAF2 against hCD40: 2 fold
